# From the supplement of paper PMC10126150
# ± gives the standard deviation of the averaged measurements.
# Tested on: ATP
# Test: switch fluorescence ratio, 500 uM ATP over buffer (Cy3 cluster intensity, sum of 5 cycles each) (fold (ratio)); higher = stronger signal-on switching upon ATP binding; sequences stand for … in TCGTCGGCAGCGTCAGATGTGTATAAGAGACAGTTTTTTTTTTTTTTTTTTTTTTTTT…TC
# Settings: aptamer strand: ATP DNA aptamer (quencher-CACCTGGGGGAGTATTGCGGAGGAAGG + anchor), 100 nM annealed; ATP concentration: 500 uM
# Outline: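 Imaging in selection buffer was followed by imaging after 15 min with 500 uM ATP at 22 °C, for Cy3-labelled switching-strand clusters annealed to 100 nM quencher-labelled ATP aptamer on a modified Illumina MiSeq flow-cell. Five of these buffer/ATP cycles ran, separated by NaOH stripping and re-annealing. The fluorescence ratio per cluster is summed target-cycle over summed buffer-cycle Cy3 intensity, averaged per switch-domain sequence; clusters outside 100-1000 RFU were removed.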
# 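Further: ATP exposure 15 min at 22 °C before imaging.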
row,Sequence,switch fluorescence ratio
1,TGTGTTGATG,1.01 ± 0.028
2,CCGCGGGGTT,1.2 ± 0.084
3,TTGAATTGCT,0.986 ± 0.032
4,TTGGTGAGTT,0.981 ± 0.029
5,TTTCATCTTG,0.9706 ± 0.0034
6,TTTAAAGTGA,1 ± 0.032
7,GATTAAGCGT,0.984 ± 0.042
8,GAGCAGAGGT,0.984 ± 0.011
9,TTAGTTTTTC,1.01 ± 0.032
10,ACCGGTTTTT,1.04 ± 0.045
11,TGGGGACTCC,0.997 ± 0.032
12,TACCGCGGGG,1.04 ± 0.043
13,AATGAAAGGG,0.988 ± 0.025
14,TGGGCGATAG,1.02 ± 0.027
15,TCTCCGGGGA,1.2077 ± 0.0006
16,ATTCATATTG,1.01 ± 0.042
17,TTTAGAGAGA,0.975 ± 0.015
18,TAGAAGGGCC,0.976 ± 0.02
19,TTTGTGCCTC,0.9528 ± 0.0093
20,TTTGGCTGAG,1.004 ± 0.009
21,AGAGATGTTG,0.993 ± 0.045
22,AATAGGGCTT,0.978 ± 0.04
23,GGAAGATGTG,1.02 ± 0.016
24,AGGCATATGG,0.993 ± 0.057
25,GATTTGTGCA,0.9952 ± 0.0014

row,Sequence,switch fluorescence ratio
1,TTTCGCGACA,1.34 ± 0.5
2,TCAGTAAATG,0.969 ± 0.038
3,TAGCGGGGCG,0.9881 ± 0.0061
4,GGGGGTGCAG,0.975 ± 0.011
5,GGTCCTCGTG,0.998 ± 0.027
6,AGGTGATTTT,0.991 ± 0.013
7,TGCTAGGTCA,0.969 ± 0.0059
8,TTACTATTGG,0.978 ± 0.013
9,GAAGCTGTAT,1.1 ± 0.035
10,GTAAGGGGCA,1.07 ± 0.047
11,TTTGGAGAGA,1.001 ± 0.01
12,CCAGGGCTAG,1.02 ± 0.062
13,TTGCCTCGGG,1.04 ± 0.037
14,AGATGAGGGT,1 ± 0.02
15,GATCATATTT,1 ± 0.017
16,GGGAGGCAGA,0.989 ± 0.065
17,AAGGTGGGTG,0.999 ± 0.029
18,CATTGGTAGG,0.987 ± 0.019
19,GTATCAGGGC,1.04 ± 0.033
20,ACCATATTTT,1.073 ± 0.0094
21,ATGGGCTGCT,1.05 ± 0.062
22,TTCAAAGAGT,0.994 ± 0.019
23,TTGAGATTGA,1.01 ± 0.02
24,ACCATACTGT,1.33 ± 0.055
25,TTGGTAGTCA,0.992 ± 0.037

row,Sequence,switch fluorescence ratio
1,TACCCCAATT,1.068 ± 0.0037
2,TTTCGCTCGC,1.13 ± 0.02
3,GGATGCTAGA,0.996 ± 0.024
4,GGGTTAATAT,1.04 ± 0.055
5,GCTAAATGTT,0.988 ± 0.015
6,CCGGGGATTG,1.01 ± 0.027
7,TGTTTGGGGA,0.997 ± 0.018
8,AACTAATTTT,0.9961 ± 0.0024
9,TGGTTGGGTA,0.997 ± 0.018
10,GCCTTGGGGG,1 ± 0.028
11,TAAGAGGCCA,1.02 ± 0.017
12,AGACGGTCGG,0.975 ± 0.016
13,CGGCTACATT,0.9995 ± 0.0034
14,ATCGTAAAAG,0.9926 ± 0.0011
15,AATAGGTTGG,0.994 ± 0.029
16,AAGGTTGCGT,0.986 ± 0.04
17,GACTTATCTA,1.016 ± 0.0073
18,TGTTGTATAA,1.2 ± 0.26
19,AAATAAAAAC,1.08 ± 0.044
20,AATTGTAAGA,0.992 ± 0.025
21,TTAGGGAACA,1.16 ± 0.16
22,GACTTAGAAT,1 ± 0.0026
23,GATTATTGTA,0.9762 ± 0.0045
24,TTTGACTTGA,0.984 ± 0.048
25,GCGGGGTTAT,1.03 ± 0.011

row,Sequence,switch fluorescence ratio
1,TTGTATGAAG,0.951 ± 0.061
2,TTGCTTGTTG,1.02 ± 0.034
3,ATTGTTATTT,1.02 ± 0.018
4,TTGGGGCCGA,0.956 ± 0.017
5,TTATGTTTGT,1.01 ± 0.033
6,TTTGGGATAG,1.01 ± 0.049
7,GGTGGGGCGA,1.01 ± 0.041
8,TGGTTGCCTG,0.993 ± 0.056
9,GGGGGAAGGT,0.982 ± 0.032
10,GGTTTTAAGT,1.01 ± 0.04
11,TACTGCGGTC,0.998 ± 0.012
12,GGTTTGAAAA,1.01 ± 0.032
13,CGCATGGGGT,1.0574 ± 1.7e-05
14,TCACACGGGG,1.03 ± 0.061
15,TTAATTTTAG,0.9764 ± 0.0094
16,TATCGAGTTT,1 ± 0.038
17,TAATGGGTTA,1 ± 0.037
18,CGTGTCAGCA,0.9937 ± 0.0055
19,AAAAGGGTCG,1.05 ± 0.087
20,CGATTCGGTG,0.9698 ± 0.0031
21,CATTTAGGTA,1.001 ± 0.0078
22,GGGAGGGAAA,1.04 ± 0.056
23,TTTCTACGCG,1.01 ± 0.034
24,GTGTATAGGA,0.98611 ± 0.00034
25,AAAGAGCTAG,1 ± 0.053

row,Sequence,switch fluorescence ratio
1,AGGTATTAGG,0.988 ± 0.041
2,GTGCCCGGAT,0.9846 ± 0.0065
3,AGCAGGGACT,1.051 ± 0.0077
4,TGGTATGCGG,1.02 ± 0.013
5,GCAATTTTAG,1.03 ± 0.035
6,CAGTTATGAC,0.987 ± 0.011
7,CAGTTTGTGG,0.9917 ± 0.0018
8,GCTAAGCCTG,1.03 ± 0.017
9,CGAAGAGGTC,1.02 ± 0.032
10,TTCGGTTTTG,0.993 ± 0.031
11,GAGTGCAATT,1.19 ± 0.034
12,TTAATAGTC,1.05 ± 0.0041
13,ACGTATCGGC,1.056 ± 0.0075
14,GTGATAGTTA,0.967 ± 0.043
15,GGGGCGCCTC,0.992 ± 0.03
16,TAGTGAAGGG,0.9974 ± 0.0061
17,GTTACCTTTT,1.04 ± 0.023
18,ATTATTAGGA,1.04 ± 0.088
19,AACTACGTCT,0.986 ± 0.055
20,GGGCTGGATT,1.01 ± 0.036
21,TCAGGTTCGT,0.987 ± 0.01
22,TTTCAAAGAT,1.22 ± 0.41
23,GAGTTTTGGC,0.952 ± 0.09
24,TATTTGCATC,1.01 ± 0.018
25,TAAAATGTTG,1.03 ± 0.033

row,Sequence,switch fluorescence ratio
1,GGCACCTACG,1.53 ± 0.14
2,TCGGGGCCTC,1.04 ± 0.024
3,CAAAAGTCTT,1.02 ± 0.037
4,GCTACTACTG,1.05 ± 0.022
5,ATTCACTTGA,1.08 ± 0.061
6,GGTATTTGGT,0.988 ± 0.03
7,TTGAGACTGT,0.971 ± 0.052
8,AGGCTTAAGA,0.976 ± 0.031
9,ATAATAATGT,1.002 ± 0.0045
10,CGAGTAGGGA,0.995 ± 0.021
11,GGGCAAGGTC,1.03 ± 0.034
12,CGTGGTTTTT,1.01 ± 0.023
13,TTTTTGCATG,1.03 ± 0.047
14,TCAATGGGGG,0.985 ± 0.062
15,GATTTGGTGT,1.03 ± 0.057
16,TTATATGGGT,0.999 ± 0.013
17,TATTTAAAAC,1.03 ± 0.021
18,GCTGGGGGCA,1.05 ± 0.098
19,ATTGCCGGAG,0.999 ± 0.037
20,ACCACGTGAC,1.51 ± 0.035
21,ATACGTTATT,1.21 ± 0.057
22,TTCGTAGTTT,0.964 ± 0.023
23,TGGGTTACAT,1.01 ± 0.031
24,TGTGGTGTGC,1.01 ± 0.022
25,CTGTAGGTGT,1.06 ± 0.029

row,Sequence,switch fluorescence ratio
1,ATCGGAGGGG,0.957 ± 0.015
2,GCTCCTGTGC,1.1992 ± 0.00049
3,GTGGTGGTTG,1.01 ± 0.028
4,GGGTTGTTGC,1 ± 0.037
5,CTTAGCTTGC,1.02 ± 0.054
6,TTTCAAACCT,1.57 ± 0.64
7,CGTAGAGAGG,0.998 ± 0.0029
8,GGTGCAAGCT,1.019 ± 0.0023
9,AGAGAAAGTA,0.98799 ± 0.0004
10,TTTTTTTCGA,1.01 ± 0.022
11,TAGTTTGGAA,0.984 ± 0.04
12,TTGGAAGATT,0.9881 ± 0.003
13,GTTTTATTGC,0.975 ± 0.04
14,ATCGCTTACA,1.02 ± 0.028
15,CGCTGATTTG,1.002 ± 0.0074
16,GATTGTAGTT,0.9586 ± 0.0034
17,CAAGTAGAGT,0.9953 ± 0.0059
18,AAAAAAGTTA,1 ± 0.064
19,GTGGGATGAC,1.01 ± 0.024
20,GGTGAGGGTA,0.991 ± 0.012
21,GGGGTAGGTG,1.08 ± 0.068
22,GAAAGGGGTT,1.02 ± 0.035
23,TCGGCTATG,1.12 ± 0.15
24,TTCTTCTCAA,1.15 ± 0.065
25,AGTAAAATGT,1 ± 0.021

row,Sequence,switch fluorescence ratio
1,GGGGGGCAGC,1 ± 0.017
2,TGGGGGTCGT,1.02 ± 0.024
3,GGTTGGGGGG,1 ± 0.036
4,GATTTGCCTG,0.968 ± 0.036
5,TTGTCACGG,0.986 ± 0.035
6,TCTGTATGTA,1.01 ± 0.026
7,GTGTTTTAAA,1 ± 0.037
8,GATAATAGGC,1 ± 0.06
9,AGAGGGGTTT,0.98 ± 0.03
10,TTCCGGCGGA,1.08 ± 0.026
11,GACAGGAATT,1.029 ± 0.008
12,CGCTTGGTTT,0.9911 ± 0.0063
13,TTACTGGGTT,1 ± 0.084
14,ACTAATAAGT,0.999 ± 0.028
15,CATACGAAGT,1.02 ± 0.068
16,GTGAGTGGCA,0.986 ± 0.029
17,GTAAGATGAA,1.01 ± 0.018
18,TTCGTGGGTG,1.03 ± 0.075
19,AGAATGTAAT,0.9591 ± 0.0014
20,TGCAAAGGGG,1.01 ± 0.029
21,ATGTCGACAC,0.976 ± 0.02
22,ACGTACTATT,1.45 ± 0.23
23,TTGAGGAGGG,0.962 ± 0.11
24,TGAAGATGTG,0.993 ± 0.02
25,GCCTGGGGGA,1.07 ± 0.12
